Test results reported in patent publication US20110206701A1 (AbbVie / Abbott, published 2011).

Molecular target: T1, CS1 (CD2-subset 1) (human, UniProt Q9NQ25 23-335)
T1 construct: whole, on cells; In the immunohistochemistry the protein stood in formalin-fixed, paraffin-embedded tissue sections; also called SLAMF7; CRACC
Assay: flow cytometry on normal blood NK and NK/T cells, directly conjugated antibody

binding result: binds
B1: HuLuc63 (elotuzumab), humanized anti-CS1 antibody (antibody, V domains shown)
VH: EVQLVESGGGLVQPGGSLRLSCAASGFDFSRYWMSWVRQAPGKGLEWIGEINPDSSTINYAPSLKDKFIISRDNAKNSLYLQMNSLRAEDTAVYYCARPDGNYWYFDVWGQGTLVTVSS
VL: DIQMTQSPSSLSASVGDRVTITCKASQDVGIAVAWYQQKPGKVPKLLIYWASTRHTGVPDRFSGSGSGTDFTLTISSLQPEDVATYYCQQYSSYPYTFGQGTKVEIK
